Tests used:
[1] = biological target: T1, monomeric alpha-synuclein (UniProt P37840 1-140); assay: SPR, captured bAb
Experimental: (§1) Any non-covalently bound antibodies were removed by three successive regenerations of 10 mM Glycine pH 1.7 (GE Healthcare, 28-9950-84). Immobilization levels were evaluated following ethanolamine capping (Bound) and finally following regeneration (Final). Non-covalent immobilization of alpha-synuclein biparatopic antibodies on flow cell 2 of channels 1-8 was performed at a final concentration of 5 μg/mL, diluted in 10 mM sodium acetate pH 5.5 (GE Healthcare, BR-1003-52). Non-covalent immobilization of an isotype control antibody on flow cell 1 of channels 1-8 was performed at a final concentration of 5 μg/mL, diluted in 10 mM sodium acetate pH 5.5 (GE Healthcare, BR-1003-52).
(§2) Binding affinity of alpha-synuclein biparatopic antibodies to monomeric or fibrillar alpha-synuclein species was performed using a single-cycle kinetics method. The instrument was primed with 1×HBS-P+ buffer (10× stock from GE Healthcare, BR-1003-52 diluted in Milli-Q water). Injections of monomeric alpha-synuclein (Boston Biochem, SP-485), increasing in concentration from 0.62-50 nM prepared from serial 2-fold dilutions, were performed with contact times of 300 sec/injection at a flow rate of 30 μL/min. A dissociation phase of 900 sec followed the final 50 nM injection. Regeneration of the sensor to the goat anti-human antibody layer was achieved using 3 regenerations of 10 mM Glycine pH 1.7. […] Regeneration of the sensor to the goat anti-mouse antibody layer was achieved using 3 regenerations of 10 mM Glycine pH 1.7. Results obtained from single-cycle kinetics were evaluated by Biacore 8K evaluation software with 1:1 binding homogenous Langmuir model with a preceeding buffer injection as a blank subtraction. The following kinetic parameters were obtained: on-rate (ka), off-rate (kd), affinity constant (KD, ratio of kd by ka), maximum response (Rmax), and goodness of fit (Chi2).
(§3) Kinetic constants were determined from 1:1 homogenous binding models for all cases.

alpha-synuclein fibrils [2] = biological target: T2, alpha-synuclein fibrils (UniProt P37840 1-140); assay: SPR, captured bAb
Experimental: as §1, §2, §3

[3] = biological target: T1, monomeric alpha-synuclein; assay: SPR, captured bAb; head says nM, kd/ka gives M
Experimental: as §1, §2, §3

alpha-synuclein fibrils [4] = biological target: T2, alpha-synuclein fibrils; assay: SPR, captured bAb; head says nM, kd/ka gives M
Experimental: as §1, §2, §3

| Binder | koff [1] [s⁻¹] | kon [1] [M⁻¹ s⁻¹] | koff (alpha-synuclein fibrils [2]) [s⁻¹] | kon (alpha-synuclein fibrils [2]) [M⁻¹ s⁻¹] | Kd [3] [nM] | Kd (alpha-synuclein fibrils [4]) [nM] |
| --- | --- | --- | --- | --- | --- | --- |
| ACI-4317A4_1113D10 (bispecific antibody, V domains shown, biparatopic; Arm A ACI-7088-4317A4-Ab1, Arm B ACI-7067-1113D10-Ab1; engineered constant domains not specified) VH 1: EVQLQQSGAELVRPGASVKLSCTASGFNIKDDYMHWVKQRPEQGLEWIGWIDPENGDTEYASKFQGKATMTADTSSNTAYLQLSSLTSEDTAVYYCKTWGTTQALFPYWGQGTLVTVSA VL 1: DIVMTQSQKFMYTSVGDRVSITCKASQNVGNAVGWYQQKAGQSPKLLIHSASNRYTGVPDRFTGTGSGTDFTLTINNMQSEDLADYFCQQYRSYPLTFGAGTKLELK VH 2: EVQLVESGGGLVQPKGSLKLSCAASGFTFNTYALHWVRQAPGKGLEWVARIRSKSSNYATYYADSVKDRFTISRDDSQSMLYLQMNNLKTEDTGMYYCVRGGVSPFDYWGQGTTLTVSS VL 2: QIVLTQSPAIMSASPGEKVTMTCSASSSVSYMHWYQQKSGTSPKRWIYDTSKLASGVPARFSGSGSGTSYSLTISSMEAEDSATYYCQQWSNNPPTFGGGTKLEIK | 0.000675 | 1.39e+06 | 7.77e-06 | 49200 | 0.486 | 0.158 |
| ACI-27D8_4317A4 (bispecific antibody, V domains shown, biparatopic; Arm A ACI-8033-27D8-Ab1, Arm B ACI-7088-4317A4-Ab1; engineered constant domains not specified) VH 1: EVQLVESGGGLVQPKGSLKLSCAASGFTFNTYAMNWVRQAPGKGLEWVARIRSKSNNFATYYADSVKDRFTISRDESESMLYLQMNNLKAEDTAMYYCVRSFDYWGQGTTLTVSS VL 1: DIKMTQSPSSMYASLGERVTITCKASQDINSYLSWFQQKPGKSPKTLIYRAKRLVDGVPSRFSGSGSGQDYSLTISSLEYEDMGIYYCLQYDEFPFTFGSGTKLEIK VH 2: EVQLQQSGAELVRPGASVKLSCTASGFNIKDDYMHWVKQRPEQGLEWIGWIDPENGDTEYASKFQGKATMTADTSSNTAYLQLSSLTSEDTAVYYCKTWGTTQALFPYWGQGTLVTVSA VL 2: DIVMTQSQKFMYTSVGDRVSITCKASQNVGNAVGWYQQKAGQSPKLLIHSASNRYTGVPDRFTGTGSGTDFTLTINNMQSEDLADYFCQQYRSYPLTFGAGTKLELK | 0.0283 | 7.94e+06 | 5.8e-05 | 65400 | 3.57 | 0.887 |
| ACI-3108C10_3112H1 (bispecific antibody, V domains shown, biparatopic; Arm A ACI-7079-3108C10-Ab2, Arm B ACI-7079-3112H1-Ab1; engineered constant domains not specified) VH 1: ELQLVESGGGLVRPGGSLKLSCATSGFTFRNYAMSWVRQTPAKRLEWVATISDGGTYTFYSDNVKGRFTISRDNVKNTLYLQMSHLKSEDTAMYYCSRAGSGHWGQGTTLTVSS VL 1: not shown VH 2: EVQLQQSGPELVKPGASVKISCKASGYTFSDYFMNWVKQSHGKSLEWIGDINPNNGGSSYIQKFKGKATLTVDKSSTTAYMELRSLTSEDSAVYYCARGSNYAMDSWGQGTSVTVSS VL 2: DIVMSQSPSSLAVSAGEKVTMSCKSSQSLLNSRTRKNYLAWYQQKPGQSPKLLIYWASTRESGVPDRFTGSGSGTDFTLTISSVQAEDLAVYYCKQSYDLWTFGGGTKLEIK | 0.023 | 2280 | 0.000315 | 13500 | 10100 | 23.4 |
| ACI-3108C10_5A12 (bispecific antibody, V domains shown, biparatopic; Arm A ACI-7079-3108C10-Ab2, Arm B ACI-8033-5A12-Ab1; engineered constant domains not specified) VH 1: ELQLVESGGGLVRPGGSLKLSCATSGFTFRNYAMSWVRQTPAKRLEWVATISDGGTYTFYSDNVKGRFTISRDNVKNTLYLQMSHLKSEDTAMYYCSRAGSGHWGQGTTLTVSS VL 1: not shown VH 2: QVHLKQSGADLVRPGASVKLSCKASGYTFTDYYINWVKQRPGQGLEWIARIYPGSGNTYYNEKFKGRATLSAEKSSTTAYMQLSSLTSEDSAVYFCVVGYYGAWGQGTTLTVSS VL 2: DVVMTQTPLSLPVSLGDQASISCRSSQSLVHSNGKTHLHWYLQKPGQSPKLLIYKVSNRFSGVPDRFSGSGSGTDFTLKISRVEAEDLGVYFCSQSTHVPWTFGGGTKLEIK | 8.05 | 9.13e+08 | 0.000113 | 10500 | 8.82 | 10.8 |
| ACI-3112H1_3108C10 (bispecific antibody, V domains shown, biparatopic; Arm A ACI-7079-3112H1-Ab1, Arm B ACI-7079-3108C10-Ab2; engineered constant domains not specified) VH 1: EVQLQQSGPELVKPGASVKISCKASGYTFSDYFMNWVKQSHGKSLEWIGDINPNNGGSSYIQKFKGKATLTVDKSSTTAYMELRSLTSEDSAVYYCARGSNYAMDSWGQGTSVTVSS VL 1: DIVMSQSPSSLAVSAGEKVTMSCKSSQSLLNSRTRKNYLAWYQQKPGQSPKLLIYWASTRESGVPDRFTGSGSGTDFTLTISSVQAEDLAVYYCKQSYDLWTFGGGTKLEIK VH 2: ELQLVESGGGLVRPGGSLKLSCATSGFTFRNYAMSWVRQTPAKRLEWVATISDGGTYTFYSDNVKGRFTISRDNVKNTLYLQMSHLKSEDTAMYYCSRAGSGHWGQGTTLTVSS VL 2: not shown | 0.0162 | 5540 | 0.000472 | 7650 | 2920 | 61.7 |
| ACI-4301H3_3108C10 (bispecific antibody, V domains shown, biparatopic; Arm A ACI-7088-4301H3-Ab2, Arm B ACI-7079-3108C10-Ab2; engineered constant domains not specified) VH 1: EVQLQQSGPELVKPGASVKISCKASGYTFADYFMNWVKQSHGKSLEWIGDINPNNGGTTYNQKFKGKATLTVDKSSNTAYMELRSLTSEDSAVYYCARGRNYAMDYWGQGTSVTVSS VL 1: DIVMSQSPSSLAVSAGEKVTMSCKSSQSLLNSRTRKNYLAWYQQKPGQSPKLLIYSASTRESGVPDRFTGSGFGTDFTLTISSVQAEDLAVYYCKQSYDLWTFGGGTKLEIK VH 2: ELQLVESGGGLVRPGGSLKLSCATSGFTFRNYAMSWVRQTPAKRLEWVATISDGGTYTFYSDNVKGRFTISRDNVKNTLYLQMSHLKSEDTAMYYCSRAGSGHWGQGTTLTVSS VL 2: not shown | 0.0361 | 1.04e+06 | 0.000418 | 8220 | 34.8 | 50.8 |
| ACI-27D8_4301D5 (bispecific antibody, V domains shown, biparatopic; Arm A ACI-8033-27D8-Ab1, Arm B ACI-7088-4301D5-Ab2; engineered constant domains not specified) VH 1: EVQLVESGGGLVQPKGSLKLSCAASGFTFNTYAMNWVRQAPGKGLEWVARIRSKSNNFATYYADSVKDRFTISRDESESMLYLQMNNLKAEDTAMYYCVRSFDYWGQGTTLTVSS VL 1: DIKMTQSPSSMYASLGERVTITCKASQDINSYLSWFQQKPGKSPKTLIYRAKRLVDGVPSRFSGSGSGQDYSLTISSLEYEDMGIYYCLQYDEFPFTFGSGTKLEIK VH 2: QVQLQQSGPELVRPGASVKISCKASGYRFTSYYIHWVKQRPGQGLEWIGWIYPGSDNTKHNDKFKGKATLTADTSSSTAYMQLSSLTSEDSAVYFCARDYDVGFGYWGQGTLVTVSS VL 2: not shown | 0.147 | 1.37e+06 | 0.000219 | 13100 | 107 | 16.7 |
| ACI-1108H1_4303A3 (bispecific antibody, V domains shown, biparatopic; Arm A ACI-7067-1108H1-Ab1, Arm B ACI-7088-4303A3-Ab1; engineered constant domains not specified) VH 1: EVKLVESGGGLVQPGGSMKLSCTASGFTFSDAWMNWVRQSPEKGLEWVAEIRNKAHNHATNYAESVKGRFTISGDDSKSSVYLQMNNLRAEDTGIYYCTIYSFWGQGTLVTVSA VL 1: SIVMTQTPKFLLVSAGDRVTITCKASQSVTNYVAWYHQKPGQSPKLLIYSASNRYSGVPDRFTGSGYGTDFTFTINTVQTEDLAVYFCQQDYRIPYTFGGGTKLEIK VH 2: QVQLQQSGAELVRPGASVTLSCKASGYTFTDYEMHWVKQTPVHGLEWIGVIDPETGGAVQNQKFKGKAILTADNSSSTAYMDLRSLTSEDSAVYNCAMGAALRLAYWGQGTLVTVSS VL 2: DVLMTQTPLSLPVSLGDQASISCRSSQSIVHSNGNSYLEWYLQKPGQSPKLLIYKVSNRFSGVPDRFSGSGSGTDFTLKINRVEAEDLGVYYCFQGSHVPFTFGSGTKLEIK | 0.00129 | 1.43e+06 | 1.49e-05 | 73600 | 0.903 | 0.203 |
| ACI-1101C8_5A12 (bispecific antibody, V domains shown, biparatopic; Arm A ACI-7067-1101C8-Ab2, Arm B ACI-8033-5A12-Ab1; engineered constant domains not specified) VH 1: EVQLVESGGGLVQPKGSLKLSCAASGFSFNIYAMNWVRQAPGKGLEWVARIRSKSNNYATYYADSVKDRFTISRADSESMLYLQMNNLKTEDTAMYYCVRVGLRFYAMDYWGQGTSVTVSS VL 1: DVLMTQTPLSLPVSLGDQASISCRSSQSIVHSNGNTYLEWYLQKPGQSPKLLIYKVSNRFSGVPDRFSGSGSGTDFTLKISRVEAEDLGVYYCFQGSQGPLTFGAGTKLELK VH 2: QVHLKQSGADLVRPGASVKLSCKASGYTFTDYYINWVKQRPGQGLEWIARIYPGSGNTYYNEKFKGRATLSAEKSSTTAYMQLSSLTSEDSAVYFCVVGYYGAWGQGTTLTVSS VL 2: DVVMTQTPLSLPVSLGDQASISCRSSQSLVHSNGKTHLHWYLQKPGQSPKLLIYKVSNRFSGVPDRFSGSGSGTDFTLKISRVEAEDLGVYFCSQSTHVPWTFGGGTKLEIK | 0.0042 | 1.1e+06 | 6.13e-05 | 46700 | 3.82 | 1.31 |

— patent US20250340623A1 (AC IMMUNE, published 2025)
